Results on two substances are retold here after patent publication US20190271705A1.

Among the targets are ShcA-pY239 peptide; MidT-pY324 peptide; EGFR-pY978 peptide.
Holding throughout (experiment): fluorescence polarization in solution
(Fluorescence polarisation rises when a labelled molecule tumbles more slowly, as on binding a larger partner.)

In assay [1] the target is fluorescein-GGpYGG peptide (SEQ ID NO: 23).

Consider “wild-type Fyn SH2 domain (hexa-histidine-tagged construct, SEQ ID NO:4)”, for which the Kd (in general, the constant that tells how readily two partners part at equilibrium) in assay [1] was determined as 67000 nM.
“T8V/C10A/K15L variant Src SH2 domain (designed binder)”: the Kd was found to be 1 nM in the assay with ShcA-pY239 peptide, 1 nM with MidT-pY324 peptide, 1 nM in the assay with EGFR-pY978 peptide and 510 nM in assay [1].
